Here are results for 7 molecules from patent US20060062793A1 (published 2006).

Experiment [1] concerns the target T1, prostate specific membrane antigen (PSMA) on LNCaP cells (human, UniProt Q04609 1-750).
T1 construct: whole, on cells; Used for intact LNCaP cells, LNCaP membrane preparations and LNCaP tumour or prostate tissue sections; also called human PSMA; LNCap membrane preparation
As to the kind of experiment: not described.

Experiment [2] addresses T1, prostate specific membrane antigen …. Nature of the experiment: ELISA on plates coated with LNCaP membrane preparation.
For experiment [3] the target is unchanged. As to the kind of experiment: ELISA on LNCaP membrane preparation, purified antibody, reference J415 chimeric antibody.

T1 sequence (Q04609 whole entry): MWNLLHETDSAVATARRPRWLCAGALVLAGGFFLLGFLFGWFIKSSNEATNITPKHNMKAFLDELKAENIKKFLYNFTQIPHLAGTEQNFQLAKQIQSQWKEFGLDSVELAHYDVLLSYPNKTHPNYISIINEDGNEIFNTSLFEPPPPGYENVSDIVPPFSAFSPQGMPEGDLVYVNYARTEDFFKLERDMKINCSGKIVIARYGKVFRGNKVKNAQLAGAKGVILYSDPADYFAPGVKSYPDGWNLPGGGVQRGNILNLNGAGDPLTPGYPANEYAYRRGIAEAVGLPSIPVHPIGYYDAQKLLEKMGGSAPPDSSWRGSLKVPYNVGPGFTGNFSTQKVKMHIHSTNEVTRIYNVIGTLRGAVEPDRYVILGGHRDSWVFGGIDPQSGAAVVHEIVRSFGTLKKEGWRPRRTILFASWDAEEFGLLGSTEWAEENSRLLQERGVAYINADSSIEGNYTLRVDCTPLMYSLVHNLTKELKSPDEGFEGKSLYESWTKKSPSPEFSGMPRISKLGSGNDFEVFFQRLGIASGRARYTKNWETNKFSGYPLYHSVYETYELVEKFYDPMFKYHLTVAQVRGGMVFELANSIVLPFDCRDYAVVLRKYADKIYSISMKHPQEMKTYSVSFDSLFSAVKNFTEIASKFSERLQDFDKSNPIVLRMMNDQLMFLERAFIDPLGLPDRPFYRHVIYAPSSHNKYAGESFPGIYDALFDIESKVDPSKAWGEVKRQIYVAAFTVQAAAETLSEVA

B1: murine J533 monoclonal antibody (antibody, mouse IgG1, V domains shown)
VH: EVQLQQSGPELVKPGASVKMSCKASGYTFTGYVMHWVKQKPGQVLEWIGYINPYNDVTRYNGKFKGKATLTSDKYSSTAYMELSGLTSEDSAVYYCARGENWYYFDSWGRGATLTVSS
VL: DIVLTQSPASLAVSLGQRATISCRASESIDSYDNTFMHWYQQKPGQPPNLLIFRASILESGIPARFSGSGSGTDFTLTIYPVEADDVATYYCHQSIEDPYTFGGGTKLEIK
notes: Mouse IgG1 kappa, hybridoma ATCC HB-12127
Take B1: the binding result in experiment [1] is “binds”.

B2: deimmunized J415 antibody, heavy chain version 4 with light chain version 5 (antibody, human IgG1, V domains shown)
VH: EVKLEESGGGLVQPGGSMKISCVASGFTFSNYWMNWVRQSPEKGLEWVAEIRSQSNNFATHYAESVKGRVIISRDDSKSSVYLQMNSLRAEDTAVYYCTRRWNNFWGQGTTVTVSS
VL: NIVMTQFPKSMSASAGERMTLTCKASENVGTYVSWYQQKPTQSPKMLIYGASNRFTGVPDRFSGSGSGTDFILTISSVQAEDLVDYYCGQSYTFPYTFGGGTKLEMK
notes: also called DIVH4/DIVK5; J415DIVH4/J415DIVK5
For B2, in experiment [2], the binding result was “binds”.

B3: deimmunized J415 antibody, heavy chain version 2 with light chain version 5 (antibody, human IgG1, V domains shown)
VH: EVKLEESGGGLVQPGGSMKISCVASGFTFSNYWMNWVRQTPEKGLEWVALIRSQSNNFATHYAESVKGRVIISRDDSKSSVYLQMNSLRAEDTAVYYCTRRWNNFWGQGTTVTVSS
VL: NIVMTQFPKSMSASAGERMTLTCKASENVGTYVSWYQQKPTQSPKMLIYGASNRFTGVPDRFSGSGSGTDFILTISSVQAEDLVDYYCGQSYTFPYTFGGGTKLEMK
notes: also called DIVH2/DIVK5; J415DIVH2 with DIVK5
As to B3, the “fold less binding than the chimeric antibody” value in experiment [3] came to 2 fold.

B4: deimmunized J415 antibody, heavy chain version 1 with light chain version 5 (antibody, human IgG1, V domains shown)
VH: EVKLEESGGGLVQPGGSMKISCKASGFTFSNYWMNWVRQTPEKGLEWVALIRSQSNNFATHYAESVKGRVIISRDDSKSSVYLQMNSLRAEDTAVYYCTRRWNNFWGQGTTVTVSS
VL: NIVMTQFPKSMSASAGERMTLTCKASENVGTYVSWYQQKPTQSPKMLIYGASNRFTGVPDRFSGSGSGTDFILTISSVQAEDLVDYYCGQSYTFPYTFGGGTKLEMK
notes: also called DIVH1/DIVK5; J415DIVH1 with DIVK5
Consider B4, for which the “fold less binding than the chimeric antibody” value in experiment [3] was found to be 2 fold.

B5: J415 chimeric antibody (antibody, V domains shown)
VH: EVKLEESGGGLVQPGGSMKLSCVASGFTFSNYWMNWVRQSPEKGLEWVAEIRSQSNNFATHYAESVKGRVIISRDDSKSSVYLQMNNLRAEDTGIYYCTRRWNNFWGQGTTLTVSS
VL: NIVMTQFPKSMSISVGERVTLTCKASENVGTYVSWYQQKPEQSPKMLIYGASNRFTGVPDRFTGSGSATDFILTISSVQTEDLVDYYCGQSYTFPYTFGGGTKLEMK
notes: also called the chimeric
B5: the binding result in experiment [2] is reported as “binds”.

B6: murine J415 monoclonal antibody (antibody, mouse IgG1, V domains shown)
VH: EVKLEESGGGLVQPGGSMKLSCVASGFTFSNYWMNWVRQSPEKGLEWVAEIRSQSNNFATHYAESVKGRVIISRDDSKSSVYLQMNNLRAEDTGIYYCTRRWNNFWGQGTTLTVSS
VL: NIVMTQFPKSMSISVGERVTLTCKASENVGTYVSWYQQKPEQSPKMLIYGASNRFTGVPDRFTGSGSATDFILTISSVQTEDLVDYYCGQSYTFPYTFGGGTKLEMK
notes: Mouse IgG1 kappa, hybridoma ATCC HB-12109
Regarding B6, the binding result in experiment [1] is recorded as “binds”.

B7: murine E99 monoclonal antibody (antibody, mouse IgG3, V domains shown)
VH: QVQLKESGPGLVASSQSLSITCTVSGFSLTAYGINWVRQPPGKGLEWLGVIWPDGNTDYNSTLKSRLNIFKDNSKNQVFLKMSSFQTDDTARYFCARDSYGNFKRGWFDFWGQGTTLTVSS
VL: NIVMTQSQKFMSTSPGDRVRVTCKASQNVGSDVAWYQAKPGQSPRILIYSTSYRYSGVPDRFTAYGSGTDFTLTITNVQSEDLTEYFCQQYNSYPLTFGAGTKLELK
For B7, in experiment [1], the binding result is listed as “binds”.
